In patent US20190177419A1 (BERGEN TEKNOLOGIOVERFORING, published 2019):

T1: recombinant human Mer-Fc chimera (R&D Systems, Cat. no. 891-MR) (human, UniProt Q12866 21-505)
T1 construct: Bought reagent; also called rhMer-Fc; rhMer; not shown: Fc part (and any linker or tag) of the bought chimera; not described
T1 sequence: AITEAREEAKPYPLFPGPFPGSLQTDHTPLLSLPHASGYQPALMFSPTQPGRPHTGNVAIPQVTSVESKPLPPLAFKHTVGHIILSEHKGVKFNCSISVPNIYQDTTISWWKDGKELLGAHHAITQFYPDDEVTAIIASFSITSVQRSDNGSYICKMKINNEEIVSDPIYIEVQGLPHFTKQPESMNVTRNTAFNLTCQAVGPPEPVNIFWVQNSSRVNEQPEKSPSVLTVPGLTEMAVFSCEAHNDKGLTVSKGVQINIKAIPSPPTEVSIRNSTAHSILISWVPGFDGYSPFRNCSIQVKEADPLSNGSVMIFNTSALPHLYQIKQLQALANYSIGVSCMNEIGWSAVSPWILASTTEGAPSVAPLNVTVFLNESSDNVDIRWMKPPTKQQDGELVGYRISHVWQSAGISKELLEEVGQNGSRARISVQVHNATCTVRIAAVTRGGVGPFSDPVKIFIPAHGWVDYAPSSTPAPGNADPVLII

T2: recombinant cyno-Axl-Fc (extracellular domain of cynomolgus monkey Axl fused to human Fc) (cynomolgus monkey (Macaca fascicularis), UniProt P30530 26-451 (human entry))
T2 construct: also called Axl from cynomolgus monkey; not shown: human Fc
T2 chain: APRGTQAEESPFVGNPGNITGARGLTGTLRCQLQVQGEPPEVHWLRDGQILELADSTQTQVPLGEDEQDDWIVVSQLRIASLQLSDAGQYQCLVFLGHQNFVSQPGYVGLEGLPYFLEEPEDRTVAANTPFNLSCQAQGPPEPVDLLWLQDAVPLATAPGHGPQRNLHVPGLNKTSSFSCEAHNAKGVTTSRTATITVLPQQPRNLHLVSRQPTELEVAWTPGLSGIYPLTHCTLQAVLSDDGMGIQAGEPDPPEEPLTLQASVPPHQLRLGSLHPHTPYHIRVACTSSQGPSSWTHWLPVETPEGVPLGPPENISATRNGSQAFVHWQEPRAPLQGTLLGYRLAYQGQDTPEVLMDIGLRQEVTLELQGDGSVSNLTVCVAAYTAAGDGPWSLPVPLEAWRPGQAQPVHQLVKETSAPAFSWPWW

T3: recombinant human Tyro3/Dtk-Fc chimera (R&D Systems, Cat. no. 859-DK) (human, UniProt Q06418 41-429)
T3 construct: Bought reagent; also called rhTyro3/Dtk-Fc; rhTyro3; not shown: Fc part (and any linker or tag) of the bought chimera; not described
T3 sequence: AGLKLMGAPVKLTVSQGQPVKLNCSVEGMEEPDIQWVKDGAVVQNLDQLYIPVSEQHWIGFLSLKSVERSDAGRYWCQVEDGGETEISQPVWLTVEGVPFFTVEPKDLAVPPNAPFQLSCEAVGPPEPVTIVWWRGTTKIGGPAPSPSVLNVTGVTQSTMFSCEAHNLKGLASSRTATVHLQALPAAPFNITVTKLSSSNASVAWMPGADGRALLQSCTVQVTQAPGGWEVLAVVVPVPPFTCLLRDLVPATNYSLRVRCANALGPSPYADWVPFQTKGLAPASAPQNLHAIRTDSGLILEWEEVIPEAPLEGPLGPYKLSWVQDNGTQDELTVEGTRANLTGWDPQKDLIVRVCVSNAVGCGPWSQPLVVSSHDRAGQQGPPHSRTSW

B1: mouse monoclonal antibody 10G5 (from hybridoma WR-10G5-E5) (antibody, IgG1, V domains shown)
VH: QVQLQQSGAELVRPGASVKLSCKASGYSFTDFYINWVRQRPGQGLEWIARIFPGGDNTYYNEKFKGKATLTAEESSSTAYIQLSSLTSEDSAVYFCARRGLYYAMDYWGQGISVTVSS
VL: DVLMTQTPLSLPVSLGDQASISCRSSQSLVHSNGIPYLHWYLQKPGQSPKLLIYRVSNRFSGVPDRFSGSGSGTDFTLKISRVEAEDLGVYFCSQGTHVPPTFGGGTKLEIK
notes: Whole mouse antibody purified from hybridoma supernatant; also called MAb 10G5
B2: mouse monoclonal antibody 10C9 (from hybridoma UT-10C9-B9) (antibody, IgG2b, V domains shown)
VH: QVQLQQPGPELVKPGASVKISCKTSDYNFTRYYIHWVKQRPGQGLEWIGWIYPGTGDSKYNEKFKGRATLTADTSSSTAYMQLSSQTSEDSAVYFCARNGNYWYFDVWGAGTAVTVSS
VL: DIVMTQAAPSGPVTPGESVSISCRSSKSLLHSNGNTYLYWFLQRPGQSPQLLIYRMSNLASGVPDRFSGSGSGTAFTLRISRVEAEDVGIYYCMQHREYPFTFGGGTKLEIK
notes: Whole mouse antibody purified from hybridoma supernatant; Possible N-glycosylation site (NFT) in CDR-H1; also called MAb 10C9
B3: chimeric (mouse variable/human constant) IgG1 antibody c10C9 (antibody, V domains shown)
VH: B2 VH
VL: B2 VL
notes: 10C9 VH and VL joined in frame to human IgG1 and C-kappa constant domains, made in CHO cells; also called chimeric 10C9; not shown: constant domains of the human IgG1 heavy chain; constant domain of the human light (C-kappa) chain
B4: chimeric (mouse variable/human constant) IgG1 antibody c10G5 (antibody, V domains shown)
VH: B1 VH
VL: B1 VL
notes: 10G5 VH and VL joined in frame to human IgG1 and C-kappa constant domains, made in CHO cells; also called chimeric 10G5; not shown: constant domains of the human IgG1 heavy chain; constant domain of the human light (C-kappa) chain

Assays:
[1] = biological target: T4, recombinant mouse Axl-Fc chimera (R&D Systems, Cat. no. 854-AX) (mouse, UniProt Q00993 19-445); test: SPR (Biacore 3000), rmAxl-Fc immobilised on a CM5 chip, antibody injected for 3 min [panel 10G5]
T4 construct: Bought soluble reagent; also called rmAxl-Fc; rmAxl; not shown: Fc part (and any linker or tag) of the bought chimera; not described
Experimental: (§1) The binding experiments were performed using Biacore 3000 instrument (GE Healthcare) at 25° C. The soluble recombinant antigens corresponding to human Axl (rhAxl-Fc chimera; R&D Systems, Cat. no. 154-AL), mouse Axl (rmAxl-Fc chimera; R&D Systems, R&D Systems; Cat. no. 854-AX) and human Tyro3 (rhTyro3/Dtk-Fc chimera; R&D Systems, Cat. no. 859-DK) were immobilized on the surface of CM5 sensor chip using amine coupling at the surface density of 1,308.0, 2,115.9 and 1,429.0 RU, respectively. The Biacore runs were performed in an automatic mode using Binding analysis wizard.

[2] = biological target: T5, recombinant human Axl-Fc chimera (R&D Systems, Cat. no. 154-AL) (human, UniProt P30530 26-451); test: SPR, Biacore 3000, 25 C, rhAxl-Fc immobilised on CM5 (190 RU), antibody injected, 1:1 Langmuir model
T5 construct: extracellular domain; Bought reagent; also called rhAxl-Fc; rhAxl; not shown: Fc part (and any linker or tag) of the bought chimera; not described
Experimental: (§2) The precise kinetic analysis was performed using BIA evaluation software and curve fitting according to 1:1 Langmuir binding model.

[3] = biological target: T1, recombinant human Mer-Fc chimera (R&D …); test: SPR (Biacore 3000), rhMer-Fc immobilised on a CM5 chip, antibody injected for 3 min [panel 10G5]
Experimental: (§3) All binding experiments were performed using Biacore 3000 instrument (GE Healthcare) at 25° C. Soluble recombinant antigens corresponding to the extracellular domains of members of the human TAM receptor family, Axl (rhAxl-Fc chimera; R&D Systems, Cat. no. 154-AL), Mer (rhMer-Fc chimera; R&D Systems, Cat. no. 891-MR) and Tyro3 (rhTyro3/Dtk-Fc chimera; R&D Systems, Cat. no. 859-DK) were immobilized on the surface of CM5 sensor chip using amine coupling at the surface density of 393.0, 303.6 and 364.0 resonance units (RU), respectively. The Biacore run was performed in an automatic mode using Binding to analysis wizard.

[4] = biological target: T2, recombinant cyno-Axl-Fc (extracellular …); test: SPR (Biacore 3000), cyno-Axl-Fc immobilised on a CM5 chip, antibody injected at 10 µg/mL for 3 min, 5 min dissociation [panel 10G5]
Experimental: (§4) The sequence of Axl receptor from cynomolgus monkey (Macace fascicularis; SEQ ID NO.43) was retrieved from WO2009062690A1. Based on the sequence, recombinant extracellular domain of cyno-Axl was generated by transient expression in CHO cells as a fusion protein with human Fc. […] The binding experiments were performed using Biacore 3000 instrument (GE Healthcare) at 25° C. […] The Biacore runs were performed in an automatic mode using Binding analysis wizard.

[5] = biological target: T5, recombinant human Axl-Fc chimera (R&D …); test: SPR, Biacore 3000, 25 C, rhAxl-Fc immobilised on CM5 (190 RU); half-life of the complex as ln2/koff
Experimental: as §2

[6] = biological target: T3, recombinant human Tyro3/Dtk-Fc chimera …; test: SPR (Biacore 3000), rhTyro3/Dtk-Fc immobilised on a CM5 chip, antibody injected for 3 min [panel 10G5]
Experimental: as §3

[7] = biological target: T2, recombinant cyno-Axl-Fc (extracellular …); test: SPR (Biacore 3000), cyno-Axl-Fc immobilised on a CM5 chip, antibody injected at 10 µg/mL for 3 min, 5 min dissociation [panel 10C9]
Experimental: as §4

[8] = biological target: T6, human Axl receptor on cells (Axl-positive MDA-MB-231 cells; HeLa cells; Axl+ cells) (human, UniProt P30530 26-894); test: flow cytometry on MDA-MB-231 cells, detection with APC-conjugated donkey anti-mouse IgG (H+L) F(ab')2
T6 construct: whole, on cells; Endogenous Axl of human cell lines; also called Axl-positive cells

[9] = biological target: T3, recombinant human Tyro3/Dtk-Fc chimera …; test: SPR (Biacore 3000), rhTyro3/Dtk-Fc immobilised on a CM5 chip, antibody injected for 3 min [panel 10C9]
Experimental: as §3

[10] = biological target: T1, recombinant human Mer-Fc chimera (R&D …); test: SPR (Biacore 3000), rhMer-Fc immobilised on a CM5 chip, antibody injected for 3 min [panel 10C9]
Experimental: as §3

[11] = biological target: T4, recombinant mouse Axl-Fc chimera (R&D …); test: SPR (Biacore 3000), rmAxl-Fc immobilised on a CM5 chip, antibody injected for 3 min [panel 10C9]
Experimental: as §1

[12] = biological target: T6, human Axl receptor on cells …; test: flow cytometry on MDA-MB-231 cells, detection with APC-conjugated donkey anti-human IgG (H+L) F(ab')2
Experimental: The cell staining was measured using Accuri C6 flow cytometer (BD Biosciences). MFI, geometric mean fluorescence intensity.
For flow cytometry, the adherent cells in culture were washed with PBS, detached by treatment with trypsin (0.25%) for 1 min and hitting culture dish for full detachment. Trypsin was quenched by adding into the tissue flask the complete medium followed by washing the cells with PBS. During the washing steps, the cells were collected by centrifugation at 200 g for 5 min. The antibody was diluted for total concentration in PBS containing 0.02% bovine serum albumin (BSA). Cell staining was performed using 200 μL of cell suspension comprising 10⁵ cells for 20 min at room temperature. The cell-bound antibodies were detected with APC-conjugated donkey anti-human or anti-mouse, respectively, IgG (H+L) F(ab′)₂ fragments (Jackson ImmunoResearch). After two washing steps with PBS/0.02% BSA, the cells were resuspended in 200 μL and kept on ice before analysis on Accuri C6 flow cytometer (BD Biosciences).

T4 sequence (Q00993 other isoform, or with tags, fused parts or gaps mutant): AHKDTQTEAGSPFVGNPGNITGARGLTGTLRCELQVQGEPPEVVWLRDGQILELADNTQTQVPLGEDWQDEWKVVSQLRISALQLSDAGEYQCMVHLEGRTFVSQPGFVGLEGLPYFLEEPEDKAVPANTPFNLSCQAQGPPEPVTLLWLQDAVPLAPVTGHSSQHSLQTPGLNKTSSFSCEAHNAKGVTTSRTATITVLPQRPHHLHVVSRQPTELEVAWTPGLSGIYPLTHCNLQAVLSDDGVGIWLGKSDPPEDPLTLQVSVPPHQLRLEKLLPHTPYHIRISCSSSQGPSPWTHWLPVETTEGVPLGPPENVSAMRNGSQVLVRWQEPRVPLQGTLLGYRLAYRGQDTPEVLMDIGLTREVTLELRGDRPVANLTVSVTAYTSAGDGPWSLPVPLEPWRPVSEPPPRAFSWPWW

Binder	binding result [1]	Kd [2]	koff [2]	kon [2]	binding result [3]	binding result [4]	Half-life (t1/2) [5]	binding result [6]	binding result [7]	EC50 (read off the curve) [8]	binding result [9]	binding result [10]	binding result [11]	EC50 (read off the curve) [12]
B1	no binding (tested: 10 µg/mL)	0.53 nM	0.000439 s⁻¹	829000 M⁻¹ s⁻¹	no binding (tested: 10 µg/mL)	binds	26.3 min	no binding (tested: 10 µg/mL)						
B2		0.18 nM	0.000289 s⁻¹	1.61e+06 M⁻¹ s⁻¹			40 min		binds	~0.2 nM	no binding (tested: 10 µg/mL)	no binding (tested: 10 µg/mL)	no binding (tested: 10 µg/mL)	
B3		0.102 nM	0.000219 s⁻¹	2.16e+06 M⁻¹ s⁻¹			52.8 min							~0.2 nM
B4		0.103 nM	0.000169 s⁻¹	1.64e+06 M⁻¹ s⁻¹			68.4 min							~0.2 nM
